Values belong to the molecule of their own block, whether it stands above or below them.
Assays:
KAR = target: T1, KAR (Homo sapiens, UniProt Q53GQ0); assay: coupled elongation with ELOVL6, […]malonyl-CoA, TLC; assay type: biochemical; details: 1 mM NADPH; co-reconstituted ELOVL6; 8 µM C16:0-CoA; 27.3 µM [14C]malonyl-CoA; pH 6.8; 37 °C; 90 min
T1 construct: gene HSD17B12; N-terminal 3xFLAG, kept; HEK 293T expressed; anti-FLAG purified, co-reconstituted with ELOVL6 in POPC proteoliposomes; 36 kDa and faint N-glycosylated 39 kDa
T1 sequence (Q53GQ0 1-312): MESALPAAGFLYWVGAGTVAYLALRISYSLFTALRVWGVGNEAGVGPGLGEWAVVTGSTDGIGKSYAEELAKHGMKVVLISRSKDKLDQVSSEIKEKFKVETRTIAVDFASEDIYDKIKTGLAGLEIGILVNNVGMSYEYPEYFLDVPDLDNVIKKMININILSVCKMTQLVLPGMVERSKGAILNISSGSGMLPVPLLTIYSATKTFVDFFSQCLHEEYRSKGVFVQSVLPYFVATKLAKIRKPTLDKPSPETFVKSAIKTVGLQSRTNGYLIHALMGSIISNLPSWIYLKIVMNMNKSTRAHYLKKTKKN
T1 sequence (Q9H5J4 1-265 partner): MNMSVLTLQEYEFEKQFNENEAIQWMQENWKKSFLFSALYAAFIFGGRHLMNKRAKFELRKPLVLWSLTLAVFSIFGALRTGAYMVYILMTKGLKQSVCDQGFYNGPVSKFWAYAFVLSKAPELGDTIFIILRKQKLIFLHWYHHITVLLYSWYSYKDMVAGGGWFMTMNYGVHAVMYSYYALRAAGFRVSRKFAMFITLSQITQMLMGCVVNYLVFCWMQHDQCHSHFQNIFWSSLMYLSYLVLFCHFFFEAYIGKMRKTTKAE

purified protein [1] = substrate: CC(C)(COP(=O)(O)OP(=O)(O)OC[C@H]1O[C@@H](n2cnc3c(N)ncnc32)[C@H](O)[C@@H]1OP(=O)(O)O)[C@@H](O)C(=O)NCCC(=O)NCCSC(=O)CC(=O)O; assay: purified protein; assay type: biochemical, Homo sapiens; details: 8 µM C16:0-CoA, proteoliposomes, pH 6.8, 37 °C, 90 min, ELOVL6 alone, labelled compound
purified protein [2] = substrate: CCCCCCCCCCCCCCCC(=O)SCCNC(=O)CCNC(=O)[C@H](O)C(C)(C)COP(=O)(O)OP(=O)(O)OC[C@H]1O[C@@H](n2cnc3c(N)ncnc32)[C@H](O)[C@@H]1OP(=O)(O)O; assay: purified protein; assay type: biochemical, Homo sapiens; details: 27.3 µM [14C]malonyl-CoA, proteoliposomes, pH 6.8, 37 °C, 90 min, ELOVL6 alone
[3] = target: T2, 3xFLAG-ELOVL6 (fatty acid elongase ELOVL6) (human) (UniProt Q9H5J4)
T2 sequence: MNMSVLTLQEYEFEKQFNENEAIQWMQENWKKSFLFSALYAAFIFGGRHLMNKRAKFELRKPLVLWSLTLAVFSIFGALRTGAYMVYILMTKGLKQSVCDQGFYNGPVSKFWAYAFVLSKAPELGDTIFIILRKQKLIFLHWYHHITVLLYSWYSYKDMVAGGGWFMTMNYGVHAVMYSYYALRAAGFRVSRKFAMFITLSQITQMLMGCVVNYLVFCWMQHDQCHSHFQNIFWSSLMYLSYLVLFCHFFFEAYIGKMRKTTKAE

[4] = target: T2, 3xFLAG-ELOVL6 (fatty acid elongase ELOVL6) (human); remark: listed apart in the source

Molecule: NC(=O)C1=CN([C@@H]2O[C@H](COP(=O)(O)OP(=O)(O)OC[C@H]3O[C@@H](n4cnc5c(N)ncnc54)[C@H](OP(=O)(O)O)[C@@H]3O)[C@@H](O)[C@H]2O)C=CC1 [NADPH]
- coupled elongation with ELOVL6, [14C]malonyl-CoA, TLC (KAR): caused production of 3-hydroxyacyl-CoA with a large increase in product levels

B1: ELOVL6 (Homo sapiens) (protein)
chain: MNMSVLTLQEYEFEKQFNENEAIQWMQENWKKSFLFSALYAAFIFGGRHLMNKRAKFELRKPLVLWSLTLAVFSIFGALRTGAYMVYILMTKGLKQSVCDQGFYNGPVSKFWAYAFVLSKAPELGDTIFIILRKQKLIFLHWYHHITVLLYSWYSYKDMVAGGGWFMTMNYGVHAVMYSYYALRAAGFRVSRKFAMFITLSQITQMLMGCVVNYLVFCWMQHDQCHSHFQNIFWSSLMYLSYLVLFCHFFFEAYIGKMRKTTKAE
notes: N-terminal 3xFLAG, kept; HEK 293T expressed; Triton X-100 solubilized, anti-FLAG purified, reconstituted in POPC proteoliposomes; 29 kDa and N-glycosylated 32 kDa
- Km (purified protein [1]): 6.46 µM
- Km (purified protein [2]): 1.22 µM

- in vitro FA elongation assay, purified ELOVL6 and KAR co-reconstituted into proteoliposomes, without NADPH: 3-ketoacyl-CoA levels compared to ELOVL6 alone [3]: 3 fold
- in vitro FA elongation assay, purified ELOVL6 and wild type KAR in the same proteoliposomes, with 1 mM NADPH: product levels compared to ELOVL6 alone [3]: 8 fold
B2: 3xFLAG-KAR (3-ketoacyl-CoA reductase KAR), wild type (enzyme)
chain: MESALPAAGFLYWVGAGTVAYLALRISYSLFTALRVWGVGNEAGVGPGLGEWAVVTGSTDGIGKSYAEELAKHGMKVVLISRSKDKLDQVSSEIKEKFKVETRTIAVDFASEDIYDKIKTGLAGLEIGILVNNVGMSYEYPEYFLDVPDLDNVIKKMININILSVCKMTQLVLPGMVERSKGAILNISSGSGMLPVPLLTIYSATKTFVDFFSQCLHEEYRSKGVFVQSVLPYFVATKLAKIRKPTLDKPSPETFVKSAIKTVGLQSRTNGYLIHALMGSIISNLPSWIYLKIVMNMNKSTRAHYLKKTKKN

- in vitro FA elongation assay, purified ELOVL6 and KAR S189A co-reconstituted into proteoliposomes, with and without 1 mM NADPH: ELOVL6 activity compared to ELOVL6 alone [4]: 3 fold
B3: 3xFLAG-KAR S189A (enzyme)
chain: MESALPAAGFLYWVGAGTVAYLALRISYSLFTALRVWGVGNEAGVGPGLGEWAVVTGSTDGIGKSYAEELAKHGMKVVLISRSKDKLDQVSSEIKEKFKVETRTIAVDFASEDIYDKIKTGLAGLEIGILVNNVGMSYEYPEYFLDVPDLDNVIKKMININILSVCKMTQLVLPGMVERSKGAILNISAGSGMLPVPLLTIYSATKTFVDFFSQCLHEEYRSKGVFVQSVLPYFVATKLAKIRKPTLDKPSPETFVKSAIKTVGLQSRTNGYLIHALMGSIISNLPSWIYLKIVMNMNKSTRAHYLKKTKKN

Reference: paper PMC4086937, “Two Modes of Regulation of the Fatty Acid Elongase ELOVL6 by the 3-Ketoacyl-CoA Reductase KAR in the Fatty Acid Elongation Cycle” (PLoS ONE, 2014)
